What was measured:
[1] = target: CD2 (Homo sapiens (Human), UniProt P06729); assay: flow cytometry, CHO-CD2 cells
[2] = target: human PD-1 (human, UniProt Q15116); assay: flow cytometry, Jurkat/IL-2/PD-1 cells
[3] = target: T1, PD-1 (human, UniProt Q15116); assay: cell-based or functional assay
[4] = target: CD28 (human, UniProt P10747); assay: cell-based or functional assay
[5] = target: CD2 (human, UniProt P06729); assay: cell-based or functional assay
[6] = target: T1, PD-1; assay: cell-based or functional assay; remark: listed apart in the source

Row | Binder | % CD25 Hi FoxP3 + [3] [% at 100 nM] | % CD25 Hi FoxP3 + [4] [% at 100 nM] | other results
1 | CD58 3650-PD-L1 303-PD-L1 303-CD58 3650 (other) SQQIYGVVYGNVTFHVPSNVPLKEVLWKKQKDKVAELENSEFRAFSSFKNRVYLDTVSGSLTIYNLTSSDEDEYEMESPNITDTMKFFLYVLESGGGGSGGGGSGGGGSFTVTVPKDLYVVEYGSNMTIECKFPVEKQLDLAALIVYWEMEGKDIIQFVHGEEDQKAQHSSYRQRARLLKDQLSLGNAALQITDVKLQDAGVYRCMISYGGGADYKRITVKVNAGGGGSGGGGSGGGGSFTVTVPKDLYVVEYGSNMTIECKFPVEKQLDLAALIVYWEMEGKDIIQFVHGEEDQKAQHSSYRQRARLLKDQLSLGNAALQITDVKLQDAGVYRCMISYGGGADYKRITVKVNAGSGGSGGGGSGGGGSSQQIYGVVYGNVTFHVPSNVPLKEVLWKKQKDKVAELENSEFRAFSSFKNRVYLDTVSGSLTIYNLTSSDEDEYEMESPNITDTMKFFLYVLESGSGGGGSDYKDDDDKHHHHHH |  |  | EC50 [1]: 14.4 nM; EC50 [2]: 6.6 nM
2 | PD-L1 303-PD-L1 303-ICOSL 2264-ICOSL 2264 (other) FTVTVPKDLYVVEYGSNMTIECKFPVEKQLDLAALIVYWEMEGKDIIQFVHGEEDQKAQHSSYRQRARLLKDQLSLGNAALQITDVKLQDAGVYRCMISYGGGADYKRITVKVNAGGGGSGGGGSGGGGSFTVTVPKDLYVVEYGSNMTIECKFPVEKQLDLAALIVYWEMEGKDIIQFVHGEEDQKAQHSSYRQRARLLKDQLSLGNAALQITDVKLQDAGVYRCMISYGGGADYKRITVKVNAGGGGSGGGGSGGGGSDTQEKEVRAMVGSDVELSCACPEGSRFDLNDVYVYWQTSESKTVVTYHIPQHSSLEYVDSRYRNRALMSPAGMLRGDFSLRLFNVTPQDEQKFHCLVLSRSLGFQEVLSVEVTLHVAANFSVGSGGSGGGGSGGGGSDTQEKEVRAMVGSDVELSCACPEGSRFDLNDVYVYWQTSESKTVVTYHIPQHSSLEYVDSRYRNRALMSPAGMLRGDFSLRLFNVTPQDEQKFHCLVLSRSLGFQEVLSVEVTLHVAANFSVDYKDDDDKHHHHHH | 4.28 | 4.28 | 
3 | PD-L1 303-ICOSL 2264-PD-L1 303 (other) FTVTVPKDLYVVEYGSNMTIECKFPVEKQLDLAALIVYWEMEGKDIIQFVHGEEDQKAQHSSYRQRARLLKDQLSLGNAALQITDVKLQDAGVYRCMISYGGGADYKRITVKVNAGGGGSGGGGSGGGGSDTQEKEVRAMVGSDVELSCACPEGSRFDLNDVYVYWQTSESKTVVTYHIPQHSSLEYVDSRYRNRALMSPAGMLRGDFSLRLFNVTPQDEQKFHCLVLSRSLGFQEVLSVEVTLHVAANFSVGGGGSGGGGSGGGGSFTVTVPKDLYVVEYGSNMTIECKFPVEKQLDLAALIVYWEMEGKDIIQFVHGEEDQKAQHSSYRQRARLLKDQLSLGNAALQITDVKLQDAGVYRCMISYGGGADYKRITVKVNADYKDDDDKHHHHHH | 23.2 | 23.2 | 
4 | PD-L1 303-ICOSL 2264-ICOSL 2264-PD-L1 303 (other) FTVTVPKDLYVVEYGSNMTIECKFPVEKQLDLAALIVYWEMEGKDIIQFVHGEEDQKAQHSSYRQRARLLKDQLSLGNAALQITDVKLQDAGVYRCMISYGGGADYKRITVKVNAGGGGSGGGGSGGGGSDTQEKEVRAMVGSDVELSCACPEGSRFDLNDVYVYWQTSESKTVVTYHIPQHSSLEYVDSRYRNRALMSPAGMLRGDFSLRLFNVTPQDEQKFHCLVLSRSLGFQEVLSVEVTLHVAANFSVGGGGSGGGGSGGGGSDTQEKEVRAMVGSDVELSCACPEGSRFDLNDVYVYWQTSESKTVVTYHIPQHSSLEYVDSRYRNRALMSPAGMLRGDFSLRLFNVTPQDEQKFHCLVLSRSLGFQEVLSVEVTLHVAANFSVGSGGSGGGGSGGGGSFTVTVPKDLYVVEYGSNMTIECKFPVEKQLDLAALIVYWEMEGKDIIQFVHGEEDQKAQHSSYRQRARLLKDQLSLGNAALQITDVKLQDAGVYRCMISYGGGADYKRITVKVNADYKDDDDKHHHHHH | 0.89 | 0.89 | 
5 | PD-L1 303-ICOSL 2264-COMP (other) FTVTVPKDLYVVEYGSNMTIECKFPVEKQLDLAALIVYWEMEGKDIIQFVHGEEDQKAQHSSYRQRARLLKDQLSLGNAALQITDVKLQDAGVYRCMISYGGGADYKRITVKVNAGGGGSGGGGSGGGGSDTQEKEVRAMVGSDVELSCACPEGSRFDLNDVYVYWQTSESKTVVTYHIPQHSSLEYVDSRYRNRALMSPAGMLRGDFSLRLFNVTPQDEQKFHCLVLSRSLGFQEVLSVEVTLHVAANFSVGGGGSGGGGSGGGGSDLGPQMLRELQETNAALQDVRELLRQQVREITFLKNTVMECDACGDYKDDDDKHHHHHH | 21 | 21 | 
6 | PD-L1 303-ICOSL 2264 (SEQ ID NO 3496) (other) FTVTVPKDLYVVEYGSNMTIECKFPVEKQLDLAALIVYWEMEGKDIIQFVHGEEDQKAQHSSYRQRARLLKDQLSLGNAALQITDVKLQDAGVYRCMISYGGGADYKRITVKVNAGSGGSGGGGSGGGGSDTQEKEVRAMVGSDVELSCACPEGSRFDLNDVYVYWQTSESKTVVTYHIPQHSSLEYVDSRYRNRALMSPAGMLRGDFSLRLFNVTPQDEQKFHCLVLSRSLGFQEVLSVEVTLHVAANFSVDYKDDDDKHHHHHH | 21.7 | 21.7 | 
7 | PD-L1 303-ICOSL 2264-Fc (Fc fusion) FTVTVPKDLYVVEYGSNMTIECKFPVEKQLDLAALIVYWEMEGKDIIQFVHGEEDQKAQHSSYRQRARLLKDQLSLGNAALQITDVKLQDAGVYRCMISYGGGADYKRITVKVNAGSGGSGGGGSGGGGSDTQEKEVRAMVGSDVELSCACPEGSRFDLNDVYVYWQTSESKTVVTYHIPQHSSLEYVDSRYRNRALMSPAGMLRGDFSLRLFNVTPQDEQKFHCLVLSRSLGFQEVLSVEVTLHVAANFSVGGGGSGSGGGGSEPKSSDKTHTCPPCPAPEAEGAPSVFLFPPKPKDTLMISRTPEVTCVVVDVSHEDPEVKFNWYVDGVEVHNAKTKPREEQYNSTYRVVSVLTVLHQDWLNGKEYKCKVSNKALPAPIEKTISKAKGQPREPQVYTLPPSRDELTKNQVSLTCLVKGFYPSDIAVEWESNGQPENNYKTTPPVLDSDGSFFLYSKLTVDKSRWQQGNVFSCSVMHEALHNHYTQKSLSLSPG | 6.6 | 6.6 | 
8 | PD-L1 303-ICOSL 2264-Fc + Fc (Fc fusion) chain 1: FTVTVPKDLYVVEYGSNMTIECKFPVEKQLDLAALIVYWEMEGKDIIQFVHGEEDQKAQHSSYRQRARLLKDQLSLGNAALQITDVKLQDAGVYRCMISYGGGADYKRITVKVNAGSGGGSGGGGSGGGGSDTQEKEVRAMVGSDVELSCACPEGSRFDLNDVYVYWQTSESKTVVTYHIPQHSSLEYVDSRYRNRALMSPAGMLRGDFSLRLFNVTPQDEQKFHCLVLSRSLGFQEVLSVEVTLHVAANFSVGGGGSGSGGGGSEPKSSDKTHTCPPCPAPEAEGAPSVFLFPPKPKDTLMISRTPEVTCVVVDVSHEDPEVKFNWYVDGVEVHNAKTKPREEQYNSTYRVVSVLTVLHQDWLNGKEYKCKVSNKALPAPIEKTISKAKGQPREPQVYTLPPCREEMTKNQVSLWCLVKGFYPSDIAVEWESNGQPENNYKTTPPVLDSDGSFFLYSKLTVDKSRWQQGNVFSCSVMHEALHNHYTQKSLSLSPGK chain 2: HMSSVSAQAAAEPKSSDKTHTCPPCPAPEAEGAPSVFLFPPKPKDTLMISRTPEVTCVVVDVSHEDPEVKFNWYVDGVEVHNAKTKPREEQYNSTYRVVSVLTVLHQDWLNGKEYKCKVSNKALPAPIEKTISKAKGQPREPQVCTLPPSREEMTKNQVSLSCAVKGFYPSDIAVEWESNGQPENNYKTTPPVLDSDGSFFLYSKLTVDKSRWQQGNVFSCSVMHEALHNHYTQKSLSLSPGK | 29.8 | 29.8 | 
9 | CD58 3650-PD-L1 303-Fc (Fc fusion) SQQIYGVVYGNVTFHVPSNVPLKEVLWKKQKDKVAELENSEFRAFSSFKNRVYLDTVSGSLTIYNLTSSDEDEYEMESPNITDTMKFFLYVLESGGGGSGGGGSGGGGSFTVTVPKDLYVVEYGSNMTIECKFPVEKQLDLAALIVYWEMEGKDIIQFVHGEEDQKAQHSSYRQRARLLKDQLSLGNAALQITDVKLQDAGVYRCMISYGGGADYKRITVKVNAGSGGGGSEPKSSDKTHTCPPCPAPEAEGAPSVFLFPPKPKDTLMISRTPEVTCVVVDVSHEDPEVKFNWYVDGVEVHNAKTKPREEQYNSTYRVVSVLTVLHQDWLNGKEYKCKVSNKALPAPIEKTISKAKGQPREPQVYTLPPSRDELTKNQVSLTCLVKGFYPSDIAVEWESNGQPENNYKTTPPVLDSDGSFFLYSKLTVDKSRWQQGNVFSCSVMHEALHNHYTQKSLSLSPG |  |  | 100 nM IFN-gamma (pg/mL), SEB assay [5]: 5440 pg/mL; 100 nM IFN-gamma (pg/mL), SEB assay [6]: 5440 pg/mL
10 | PD-L1 303-CD58 3650-Fc (Fc fusion) FTVTVPKDLYVVEYGSNMTIECKFPVEKQLDLAALIVYWEMEGKDIIQFVHGEEDQKAQHSSYRQRARLLKDQLSLGNAALQITDVKLQDAGVYRCMISYGGGADYKRITVKVNAGGGGSGGGGSGGGGSSQQIYGVVYGNVTFHVPSNVPLKEVLWKKQKDKVAELENSEFRAFSSFKNRVYLDTVSGSLTIYNLTSSDEDEYEMESPNITDTMKFFLYVLESGSGGGGSEPKSSDKTHTCPPCPAPEAEGAPSVFLFPPKPKDTLMISRTPEVTCVVVDVSHEDPEVKFNWYVDGVEVHNAKTKPREEQYNSTYRVVSVLTVLHQDWLNGKEYKCKVSNKALPAPIEKTISKAKGQPREPQVYTLPPSRDELTKNQVSLTCLVKGFYPSDIAVEWESNGQPENNYKTTPPVLDSDGSFFLYSKLTVDKSRWQQGNVFSCSVMHEALHNHYTQKSLSLSPG |  |  | 100 nM IFN-gamma (pg/mL), SEB assay [5]: 9820 pg/mL; 100 nM IFN-gamma (pg/mL), SEB assay [6]: 9820 pg/mL
11 | PD-L1 303-PD-L1 303-CD58 3650-CD58 3650 (other) FTVTVPKDLYVVEYGSNMTIECKFPVEKQLDLAALIVYWEMEGKDIIQFVHGEEDQKAQHSSYRQRARLLKDQLSLGNAALQITDVKLQDAGVYRCMISYGGGADYKRITVKVNAGGGGSGGGGSGGGGSFTVTVPKDLYVVEYGSNMTIECKFPVEKQLDLAALIVYWEMEGKDIIQFVHGEEDQKAQHSSYRQRARLLKDQLSLGNAALQITDVKLQDAGVYRCMISYGGGADYKRITVKVNAGGGGSGGGGSGGGGSSQQIYGVVYGNVTFHVPSNVPLKEVLWKKQKDKVAELENSEFRAFSSFKNRVYLDTVSGSLTIYNLTSSDEDEYEMESPNITDTMKFFLYVLESGSGGSGGGGSGGGGSSQQIYGVVYGNVTFHVPSNVPLKEVLWKKQKDKVAELENSEFRAFSSFKNRVYLDTVSGSLTIYNLTSSDEDEYEMESPNITDTMKFFLYVLESGSGGGGSDYKDDDDKHHHHHH |  |  | 100 nM IFN-gamma (pg/mL), SEB assay [5]: 8620 pg/mL; 100 nM IFN-gamma (pg/mL), SEB assay [6]: 8620 pg/mL
